Results published in patent US12031160B2, “Method for the production of glufosinate-ammonium” (ZHEJIANG UNIVERSITY OF TECHNOLOGY, priority 2018, dated 2024).
Substitutions are numbered along the chain they refer to. Names and notes keep the numbering of the source.

Experiments:
[1] = substrate: CP(=O)(O)CCC(=O)C(=O)O; test: purified protein, by the assay type; settings: other: PPO 2-10 mM, NADPH 1-5 mM, pH 7.4, 35° C., double-reciprocal plot
[2] = substrate: NC(=O)C1=CN([C@@H]2O[C@H](COP(=O)(O)OP(=O)(O)OC[C@H]3O[C@@H](n4cnc5c(N)ncnc54)[C@H](OP(=O)(O)O)[C@@H]3O)[C@@H](O)[C@H]2O)C=CC1; test: purified protein, by the assay type
[3] = substrate: CP(=O)(O)CCC(=O)C(=O)O; test: Kinetic parameters of purified mutant PPTGDH-F357G; assay type: biochemical, Pseudomonas moorei; settings: other: PPO 2-10 mM, NADPH 1-5 mM, pH 7.4, 35° C., double-reciprocal plot
Description: (§1) 1. […] The mutant proteins were purified by Ni-NTA column(1.6×10 cm, Bio-Rad, the USA), and the specific operations were carried out as follows: (1)equilibrate a Ni-NTA column with 5 column volumes of a binding buffer(pH 8.0, 50 mM sodium phosphate buffer containing 0.3 M NaCl) until the baseline is steady; (2)load the sample with a flow rate of 1 mL/min with the amount of the loading sample of 25-40 mg/mL, thereby attaching the target protein to the Ni-NTA column; (3)wash the column with 6 column volumes of buffer A (pH 8.0, 50 mM sodium phosphate buffer containing 0.3 M NaCl and 30 mM imidazole) at a flow rate of 1 mL/min until the baseline is steady; (4)wash the column with buffer B (pH 8.0, 50 mM sodium phosphate buffer containing 0.3 M NaCl and 500 mM imidazole) at a flow rate of 1 mL/min, collect the target protein and dialyze overnight in a pH 7.5, 20 mM phosphate buffer, thereby obtaining the pure glufosinate-ammonium dehydrogenase; and (5)wash the Ni-NTA column with 5 column volumes of a binding buffer(pH 8.0, 50 mM sodium phosphate buffer containing 0.3 M NaCl) until the baseline is steady, and store the Ni-NTA column in 5 column volumes of ultrapure water containing 20% ethanol.
(§2) According to sequential mechanism in glufosinate-ammonium dehydrogenase's catalytic reaction, vmax, Km^A, Km^B can be calculated by a double-reciprocal plot, the results were shown in Table 4.

[4] = substrate: NC(=O)C1=CN([C@@H]2O[C@H](COP(=O)(O)OP(=O)(O)OC[C@H]3O[C@@H](n4cnc5c(N)ncnc54)[C@H](OP(=O)(O)O)[C@@H]3O)[C@@H](O)[C@H]2O)C=CC1; test: Kinetic parameters of purified mutant PPTGDH-F357G; assay type: biochemical, Pseudomonas moorei; settings: other: PPO 2-10 mM, NADPH 1-5 mM, pH 7.4, 35° C., double-reciprocal plot
Description: as §1, §2

[5] = substrate: CP(=O)(O)CCC(=O)C(=O)O; test: Kinetic parameters of purified mutant PPTGDH-L107R-F188P; assay type: biochemical, Pseudomonas moorei; settings: other: PPO 2-10 mM, NADPH 1-5 mM, pH 7.4, 35° C., double-reciprocal plot
Description: as §1, §2

[6] = substrate: NC(=O)C1=CN([C@@H]2O[C@H](COP(=O)(O)OP(=O)(O)OC[C@H]3O[C@@H](n4cnc5c(N)ncnc54)[C@H](OP(=O)(O)O)[C@@H]3O)[C@@H](O)[C@H]2O)C=CC1; test: as above; assay type: biochemical, Pseudomonas moorei; settings: other: PPO 2-10 mM, NADPH 1-5 mM, pH 7.4, 35° C., double-reciprocal plot
Description: as §1, §2

[7] = substrate: CP(=O)(O)CCC(=O)C(=O)O; test: Kinetic parameters of purified mutant PPTGDH-L107R-F188P-G239K; assay type: biochemical, Pseudomonas moorei; settings: other: PPO 2-10 mM, NADPH 1-5 mM, pH 7.4, 35° C., double-reciprocal plot
Description: as §1, §2

[8] = substrate: NC(=O)C1=CN([C@@H]2O[C@H](COP(=O)(O)OP(=O)(O)OC[C@H]3O[C@@H](n4cnc5c(N)ncnc54)[C@H](OP(=O)(O)O)[C@@H]3O)[C@@H](O)[C@H]2O)C=CC1; test: as above; assay type: biochemical, Pseudomonas moorei; settings: other: PPO 2-10 mM, NADPH 1-5 mM, pH 7.4, 35° C., double-reciprocal plot
Description: as §1, §2

[9] = substrate: CP(=O)(O)CCC(=O)C(=O)O; test: Kinetic parameters of purified mutant PPTGDH-L107R; assay type: biochemical, Pseudomonas moorei; settings: other: PPO 2-10 mM, NADPH 1-5 mM, pH 7.4, 35° C., double-reciprocal plot
Description: as §1, §2

[10] = substrate: NC(=O)C1=CN([C@@H]2O[C@H](COP(=O)(O)OP(=O)(O)OC[C@H]3O[C@@H](n4cnc5c(N)ncnc54)[C@H](OP(=O)(O)O)[C@@H]3O)[C@@H](O)[C@H]2O)C=CC1; test: Kinetic parameters of purified mutant PPTGDH-L107R; assay type: biochemical, Pseudomonas moorei; settings: other: PPO 2-10 mM, NADPH 1-5 mM, pH 7.4, 35° C., double-reciprocal plot
Description: as §1, §2

[11] = substrate: CP(=O)(O)CCC(=O)C(=O)O; test: Kinetic parameters of purified mutant PPTGDH-F188P; assay type: biochemical, Pseudomonas moorei; settings: other: PPO 2-10 mM, NADPH 1-5 mM, pH 7.4, 35° C., double-reciprocal plot
Description: as §1, §2

[12] = substrate: NC(=O)C1=CN([C@@H]2O[C@H](COP(=O)(O)OP(=O)(O)OC[C@H]3O[C@@H](n4cnc5c(N)ncnc54)[C@H](OP(=O)(O)O)[C@@H]3O)[C@@H](O)[C@H]2O)C=CC1; test: Kinetic parameters of purified mutant PPTGDH-F188P; assay type: biochemical, Pseudomonas moorei; settings: other: PPO 2-10 mM, NADPH 1-5 mM, pH 7.4, 35° C., double-reciprocal plot
Description: as §1, §2

[13] = substrate: CP(=O)(O)CCC(=O)C(=O)O; test: Kinetic parameters of purified mutant PPTGDH-G239K; assay type: biochemical, Pseudomonas moorei; settings: other: PPO 2-10 mM, NADPH 1-5 mM, pH 7.4, 35° C., double-reciprocal plot
Description: as §1, §2

[14] = substrate: NC(=O)C1=CN([C@@H]2O[C@H](COP(=O)(O)OP(=O)(O)OC[C@H]3O[C@@H](n4cnc5c(N)ncnc54)[C@H](OP(=O)(O)O)[C@@H]3O)[C@@H](O)[C@H]2O)C=CC1; test: Kinetic parameters of purified mutant PPTGDH-G239K; assay type: biochemical, Pseudomonas moorei; settings: other: PPO 2-10 mM, NADPH 1-5 mM, pH 7.4, 35° C., double-reciprocal plot
Description: as §1, §2

[15] = other: PPO 2-10 mM, NADPH 1-5 mM, pH 7.4, 35° C., double-reciprocal plot

B1: Pseudomonas moorei glufosinate-ammonium dehydrogenase E3 (PPTGDH, PPTGDHE3, WP_090325311.1), wild type, SEQ ID NO: 6 (Pseudomonas moorei) (protein)
chain: MIESVESFLARLKKRDPDQPEFHQAVEEVLRSLWPFLEANPRYLTSGILERICEPERAIVFRVSWVDDQGKVQVNRGFRIQMNSAIGPYKGGLRFHPSVNLGVLKFLAFEQTFKNSLTSLPMGGGKGGSDFDPKGKSDAEVMRFCQAFMSELYRHIGADVDVPAGDIGVGAREIGFLFGQYKRLSNQFTSVLTGKGPSYGGSLIRPEATGFGCVYFAEEMLKRRGETVEGKRVAISGSGNVAQYAARKVMDLGGKVISLSDSEGTLYCESGLTEAQWQAVLELKNVQRGRISELAGRFGLEFLAGQRPWGLSCDIALPCATQNELDAEAARALLRNGCTCVAEGANMPTTLEAVDLFIEAGILFAPGKASNAGGVAVSGLEMSQNAMRLLWTGGEVDSKLHAIMQSIHHACVHYGEENGQVNYVKGANIAGFVKVADAMLAQGVV
- Km [1]: 3120 µM
- kcat [1]: 47.51 ± 2.05 s⁻¹
- kcat/Km [1]: 15220 M⁻¹ s⁻¹
- Km [2, 15]: 120 µM
- kcat/Km ([2]; other: pH 7.4, 35° C.): 395910 M⁻¹ s⁻¹

B2: Pseudomonas moorei glufosinate-ammonium dehydrogenase E3 (SEQ ID NO: 6) variant PPTGDH-F357G (Pseudomonas moorei; F357G) (protein)
chain: B1 chain with F357G
- Km [3]: 3350 µM
- kcat [3]: 56.31 ± 1.80 s⁻¹
- kcat/Km [3]: 16808 M⁻¹ s⁻¹
- Km [4]: 105 µM
- kcat/Km [4]: 536000 M⁻¹ s⁻¹

B3: Pseudomonas moorei glufosinate-ammonium dehydrogenase E3 (SEQ ID NO: 6) variant PPTGDH-L107R-F188P (Pseudomonas moorei; F188P/L107R) (protein)
chain: B1 chain with L107R, F188P
- Km [5]: 3220 µM
- kcat [5]: 67.10 ± 2.81 s⁻¹
- kcat/Km [5]: 20840 M⁻¹ s⁻¹
- Km [6]: 112 µM
- kcat/Km [6]: 599110 M⁻¹ s⁻¹

B4: Pseudomonas moorei glufosinate-ammonium dehydrogenase E3 (SEQ ID NO: 6) variant PPTGDH-L107R-F188P-G239K (Pseudomonas moorei; F188P/G239K/L107R) (protein)
chain: B1 chain with L107R, F188P, G239K
- Km [7]: 2090 µM
- kcat [7]: 607.5 ± 4.02 s⁻¹
- kcat/Km [7]: 290670 M⁻¹ s⁻¹
- Km [8]: 45 µM
- kcat/Km [8]: 1.35e+07 M⁻¹ s⁻¹

B5: Pseudomonas moorei glufosinate-ammonium dehydrogenase E3 (SEQ ID NO: 6) variant PPTGDH-L107R-F188P-G239K-F357G, SEQ ID NO: 9 (Pseudomonas moorei; … (protein)
chain: B1 chain with L107R, F188P, G239K, F357G
- Km [1]: 2110 µM
- kcat [1]: 712.6 ± 3.21 s⁻¹
- kcat/Km [1]: 337730 M⁻¹ s⁻¹
- Km [2, 15]: 52 µM
- kcat/Km [2, 15]: 1.3703e+07 M⁻¹ s⁻¹

B6: Pseudomonas moorei glufosinate-ammonium dehydrogenase E3 (SEQ ID NO: 6) variant PPTGDH-L107R (Pseudomonas moorei; L107R) (protein)
chain: B1 chain with L107R
- Km [9]: 2430 µM
- kcat [9]: 42.02 ± 2.47 s⁻¹
- kcat/Km [9]: 17290 M⁻¹ s⁻¹
- Km [10]: 102 µM
- kcat/Km [10]: 411960 M⁻¹ s⁻¹

B7: Pseudomonas moorei glufosinate-ammonium dehydrogenase E3 (SEQ ID NO: 6) variant PPTGDH-F188P (Pseudomonas moorei; F188P) (protein)
chain: B1 chain with F188P
- Km [11]: 4160 µM
- kcat [11]: 33.50 ± 1.51 s⁻¹
- kcat/Km [11]: 8050 M⁻¹ s⁻¹
- Km [12]: 140 µM
- kcat/Km [12]: 239290 M⁻¹ s⁻¹

B8: Pseudomonas moorei glufosinate-ammonium dehydrogenase E3 (SEQ ID NO: 6) variant PPTGDH-G239K (Pseudomonas moorei; G239K) (protein)
chain: B1 chain with G239K
- Km [13]: 2530 µM
- kcat [13]: 33.98 ± 1.55 s⁻¹
- kcat/Km [13]: 13430 M⁻¹ s⁻¹
- Km [14]: 68 µM
- kcat/Km [14]: 499700 M⁻¹ s⁻¹
